Test results: the NTF2 design screens of Basanta et al. (2020)

Experiment: protease stability score; higher = more stable; yeast display proteolysis, trypsin and chymotrypsin;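 further: relative to predicted unfolded state with 0 unfolded-like and 1 meaning tenfold more protease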

Row | Sequence | protease stability score
1 | DEEREIIETFFRESLEVIKTGDWKTFDDLLDPRARLNIGDKDYHGRHEIVRQWHKQFKDLGVDHIENKDLRIFDGKIETHFDLEVGDKRIHLEFHATKIDGRWLFHEIRVQ | 1.97
2 | DEEREKSELAIKIMKHVWETGDETLKSELFDPNARIHIDGKEIVGREEIEDQLRHIRMHITMFDINSTKFVDGRLEVYLNRRVRLFFDGREIEEEQHIHVVLLKINGRWQLQELEVT | 1.36
3 | DEEREKVIRFLERFQESSRTGDEETLHRLADPNVKLTVDGRELHGREVMVRYAIEWRIEDVEPKRYTEQGDKLILHVRIHTTIGDKHEVREVDLFVRKIDGRWIMEEFRVR | 0.96
4 | DEERELAKWAEEMLRRRFETGNERFWEELADPNTRSDINGVELIGRETVVHFLREEQRHMGVDHTDVKHTNVELQGDKVIVRMDVELHFDGVTVRSTLSYTSIKFNGRWILHSIEHHIH | 1.13
5 | DEERELLDHLAKFILSVVRTGDWESMLRMADPNARIQIDGREYHGMDFFIRHWWELGIDHERIDKIDIQGDKLFIHRTLEYDGQEIDSELYIIVINGKLKSIDIRIR | 0.764
6 | DEERELLKFFLKAWSKALVTGDEQTLLDLVDPNARNVIGDKDLIGREFLEKVLREMRITEVHIEDIKFQGEFVTSDLRMRVRQGDKEFDIRVRLVVYKYDGRWVFKTFHME | 2.23
7 | DEERELLKRFIELWFHAIKTGDEDQLIRLLDPHVRIDINGVDIHGMEKYIHEHLRLERERGFEIRDFKIKHIEIQGEKAHVDTRLSGMVDGRHVDVRNRFIIYKFNGRWIFHSFHVD | 1.24
8 | DEERELTEKLTRKLIHNWLTGDPEAIRRMLDPNVRVIINGQELHGRERFHEHMHHLLRHMRIDHIDIKDWKFQGEKFHIDLHVHGTIDGVHFIHRTESSVIIVNGKIHQMHVHEI | 1.41
9 | DEERELYKRHWDRLNRAIHTGDEEEVRRLADPDYKIRIGDKTLHGREDIKKFLEHIRISVESFEIKDMHDIDGVIEVDGKVELRLVVDGRTFRIETRVVYYILKVNGRWLMHSEIYH | 0.82
10 | DEERENAERMLKAWVEILETGDEHRISRLLDPNVQFQIGDKHLHGREDVLRHLSEMIKKVKNLTISIHSINIQGDKVHVDGHIHVNGVDHKNDLILLKVNGRWFVTSLKIE | 1.78
11 | DEERENIEKALRLLEHFNKTGNEEDINRLMDPHARSHINGKDVHGREEVVRMLRELGVERIEVEDLEIERSKQVDGRIEIHVHTVVNFNGRHTEFRVEIIAVKVNGKWIMRSVIFE | 1.56
12 | DEERERREDETRLLLEILITGDEDRFRQLADPHMKLHIGDKDFIGREVAVKFLRDLWREFGIKHILFEDSTIVGDKLEHRMHLEVNGKRRRMELENVIIDGRVHSMHIRIH | 1.39
13 | DEERHDAEEASREIMRSYETGDETEYLNLLDPHARMTVGDKEFHGREDILRWWHELNEKLGVDRIHLHLEHIRVINGVVESHVRLNVNGREHRVELLVYKVNGRWLIREMHFR | 1.68
14 | DEERHEALRVAKEFMHNFWTGNEELNRHLIDPNVRLTIEVGDKRIDRVGRESFSHTLHRWREHLRIEDLDETRIDVQGDKAVLHTIMHIKIGDKHITVEVDINILVVDGRLRHIRVIVR | 2.01
15 | DEERHHFERVYEELMHVRRTGDWERYWELLDPDARLEINGQKYHGREDVLKAVTDIMRHWREKEFDFKRMDVQGDKVKIEGRVNGNFNGRDINTDVEIQITVVDGRLRHERFIIK | 1.71
16 | DEERHILEELMRILTEAMHTGDEHLLEWLLDPHMIIEIGDKTLHGRDQILRVVEEIRRHIRRIEVKHSHVQGDKIRIEGHMHSETEFNGRRFSFTVYVEIIIVKINGVWRIRSLHIH | 1.39
17 | DEERHYVEHIIKLLSRHIYTGDFEAFEELLDPNALIIIGDKHLVGREDWRRLVHEIRIRNEHVEIEDVNVYDGRAESKVTFHGRREYDGRTTETNLDVNYFLLKINGRWVFESLEIR | 1.67
18 | DEERKDFEEALKKWLESMETGDEKHLEELFDPNAKFLIDGVELHGREVFKEFLRRFKNVRVEELHLDHLEVQGDKVITHVTFRGTFNGKHENVHRILIAVKFDGRWFVRSIEVH | 2.34
19 | DEERKDTKEAIERVRDTWRTGDEQDIFNNVDPNTRMIVGDKHHHGMEDVARLAFEWRVHDFRFHEVHSSEDHVILDGRVDGEINGRRINTKMILILLKIDGRWHIESIQYI | 0.805
20 | DEERKEFEEVFRQWIHALRTGDEDSELRNLDPNARIVVGDKEVHGREESERYLRETLHRADHMDFELHRLDVQGDKVHIDGTMILVVNGQEIRYRIHFISVKIDGRWLLRSVIIH | 1.86
21 | DEERKELEEALRELKHSWETGDWRSLSEMADPNVLLKQGDFEYHGRELFLEFMRHLIEHLGIKHVEIRDMKIFENRVDMDVIIRFNGQTTRIQIILVKFNGRWFIKSVIIR | 2.02
22 | DEERKESQKALELMLELFQTGDEEELSKFADPHVRLEFRVGDKRFEIHGREEVSRFFHELIWRIKNLRLTRHNDEVQGEKVIIHFELRQGDKRSEINIIAIKINGRWFIKHETVILL | 1.62
23 | DEERKETEEATRQDIHDFRTGDEKSFDEFFDPNVRLDINGVRVHGRELASKWFRDFFRELGVKHSEIEHREIQGEKAIVNEDVRVGDKRVEVILVYLKINGRWEITTVTLRHE | 1.05
24 | DEERKEYEDALTLFIEYLLTGDFERLEHLADPTTRLIVNGQEFHGRELVMRQLLEIRFHDHKLHDYKVVNGVAILDTRDRGIINGQETIFKTHIVLQKIDGRWVLRRYEIR | 1.38
25 | DEERKFLKKMHEILDKSERTGNEEDIMRLVDPEVRLTVGDKELHGWSAMHEYFKRWIDKFPGVRVHFELNDITIVDGRILNIVHTKFEFDGREFQLTATIFAHKYDGRWTLTSMRYE | 1.09

Row | Sequence | protease stability score
26 | DEERKFWEEVMRLMREAFETGDEHLIERMADPHVRINIIVDGREIEFHGWEILVDLMKFVKGMQFTLKDSDIINGVLKIDGKTRQGDKITDVEIEFHVVNGRVKEIHVHIL | 2.48
27 | DEERKFWHELAELLFHIHLTGDEDMLRHLLDPHVRSDINGVELHGREQAAEHFHKLMKTLGVKHIHHKRMHTIGDKTIIHGESEVDGRILHVHNHFWVVNGKVEEVKMHIE | 0.495
28 | DEERKHSEDLKDMHLKSMLTGDEEFISHLADPNVRIVFNGRDLHGRELLHEILKRINEELGVSNIEVRLHHIEIVGEWVHIHGRLHWNGRTSRIHLLLFKIDGQWNIKSIHIEIE | 1.22
29 | DEERKIAEKFAELYQHWEHTGNEDEMRSFFDPNYRLFVGEKEFVGRKTRSRWHREYIEKLGVDHVEIQDYRVQGNFVESDLVLRFNGREVKTEIRINVIDGRIKEVHIITH | 0.198
30 | DEERKIVEKWANEFLQAQITGDEDWFREYADPTTRYNLHIGDYDLHLHGRELVLTFLHEILRKFKNIKIEIKRRNIQGEKTDIDGVENYNGVEHRVRIHLVVINGQLKSYTIKEH | 0.604
31 | DEERKIVLESVRLWLDEWETGDESALEKLMDPNVRVIIGDKTVHGREQMIKFLREWLTRYDHLEIKLRDIKVIGDKIHVESEFRYHIGDKELSHRTNVVLKIVDGKLKSVRVDFE | 1.93
32 | DEERKLATELFKWLIDLYLTGDEETFEKLADPHYLSDVNGRNIHGMELISHIWREEIEKYGWEIHIKIRHIELQGDKSKSETEIHNNYDGRRIVFETRIIVRIVNGRIKSIEVRFR | 1.28
33 | DEERKMYTYAHKLLKTSHDTGNEDDLTNLVDPNVRIDINGRDIHGWDFWHEMMTKLGVNVFETKHVELQGNKLHIDGTLHVDGRTHRVTINNIKIDGRWIIKHVHIE | -0.3
34 | DEERKRSEELMKLEIHVFETGDWEWYREMADPNTRMHIDGKDFHGREEIYKFLHEHHLRFKNIKIHFEHIELQGEYVHNDVIIHVNGVDLIAHIIIVVVNGRVTHSEFQLE | 1.17
35 | DEERKSTELALKHWHESMRTGDEHDTRRMMDPNVRVEIGDKTYVGREDVLEFMHRLGANHVEHFEIEDWKIVNGKVVMHGHSRVRIGDFEANTEVIIFSQKFNGRWFLESVIIV | 0.656
36 | DEERKWTKEALDKLLRVIATGDEDFINQNADPRVRLEINGVEIHGRELWHKILKDHSERMGVKHTHLESHDEFNGVITIHMRLFVGDKETRIEIINLKVDGKWIIKSLRIE | 1.22
37 | DEERQESEEALRHSMELWATGDFESLSRNVDPNVRVEIGDKTFHGWEIAHELFHKIKNLTVHLEDHEIQGEKVTIHGVLNFNGKREHVRLYSKKVNGRWILEKVQVG | 2.17
38 | DEERQRAHKWMHDWIKAYLTGDEEHQNQMLDPNMRIEYGDKTHHGRDILIEIFREELRQVDHIEIRIRHIDNFEGRVRTDGELHVKINGRREHYDIILEYDVVNGKLKIERWDIR | 1.45
39 | DEERQTLEEWARELLQIHKTGDEERHKEYADPDDLLRIGDKDFHGMEHVLHALVQHWEKMGVKHLEIKRLRVINGVMHVEGVLHVGDKTHDVKLHLFIFNGRIERVEIRIE | 1.33
40 | DEERRHFEHFFHLWEQIMVTGDEDMARMLADPNVRIQVGDKKYHGREHFAELIKHLRVERIRIHTFRLYDGRIELIIHVHGNVNGQRDEFETRSHTIKVDGVWVIHSFHID | 1.6
41 | DEERRRAKKFLEQFVRNVETGDEELHYHLADPHMKVKIGDKEFHGMEHWIEWFHRFGFDHMEIELKDIRVQGDKAHIDGRLHVDYNGREHSTNVELVVRKVNGRWRLHELRVE | 1.28
42 | DEERRRDEEDWRFLEHVWETGDFDALVNMIDPNVRIEFEGRTHHGREDASHLIKRLGVKYFEVKSQNIQGDYIIDDVEFRVGEYRTRVRIIIHKIDGKWYIHSLHIL | 0.913
43 | DEERRSSEEYVRTLHDIIRTGDEDRLVRLADPHARLEVGEFHFHGREELEHFWRKIIEHFGHDKIEVRIESVEVQGEKIVNVGKLSVNGQEREIIFIALKYNGRWITRSIHLH | 1.59
44 | DEERTLVEELIQIFVEALETGDFETLSKMFDPHALFLQGDKRFVGRKDIEKWIHDLVRRLGVNHIEIDKITVQGEKAHVDTRVHIGDKTSTIHILIVKVNGRWFVEEIRYH | 1.17
45 | DEERVKQVQKKAFEAVMKGNDDEMRKIGKPNVRYEYIDEKNEGQEAVDVVIQLVKKVGAEAKVRRTEVKGDTVRAIFVYNDGDQTVQTKVEVKYEGDKVKEARVELTDEVQKVLHKG | -0.027
46 | DEESEDAKRVLDEWLHMLDTGNEERLHELADPNMRFDVNGKEIHGMEIWQKEMKRSLTHHGAEMHHRIRTIEVQGNKILVDGELIINFNGRTYLHKIHIIFQKFDGRWHVESLTIK | -0.052
47 | DEESEKVEHFLEELFRAMETGDEDQFRKLMDPNVRASYGDKEVHGRNDILHWIREYRERVKNLKLEVHRVRVRIYNGRVEIEMDTILRINGKEHKVTLTFDVTKVNGRWFIEHVEVEVR | 1.37
48 | DEESKESHDIMRILLHIFRTGDEHKLKEMADPNTLFHIGDKEFHGREEFVHFLREVFEKIKNIKHRITDIKDVGDKIHVEVEEKVNGRHRHVELIWLVVDGKIQWYEIRIR | 1.23
49 | DEESKFLTEMLEDILRALITGDEEHLQTLMDPDVRVEVGDKLFIGREQASEFWRREFEEIRIDDFRIHHLEVIDGRVHVHGRVDGTIGDKHHRREIIIHDLIVNGRIKKIRIEIH | 1.31
50 | DEESRLIEEFIKKVTHALRTGDEHRMHHLLDPHVRFYIGDKFLIGRENMAHLIRWLIEHLGVDHTHLESSSIINGKSFLDTRMHVDGQEIEVRFIIVLFDGVVNRVHYQIE | 1.1
